Reference: US20140286957A1 (Teva, published 2014)
Residue numbers refer to the chain shown, from its start. Names and notes keep the numbering of the source.

T1: Human CD1d on cells (human, UniProt P15813 20-335)
T1 sequence (looked up): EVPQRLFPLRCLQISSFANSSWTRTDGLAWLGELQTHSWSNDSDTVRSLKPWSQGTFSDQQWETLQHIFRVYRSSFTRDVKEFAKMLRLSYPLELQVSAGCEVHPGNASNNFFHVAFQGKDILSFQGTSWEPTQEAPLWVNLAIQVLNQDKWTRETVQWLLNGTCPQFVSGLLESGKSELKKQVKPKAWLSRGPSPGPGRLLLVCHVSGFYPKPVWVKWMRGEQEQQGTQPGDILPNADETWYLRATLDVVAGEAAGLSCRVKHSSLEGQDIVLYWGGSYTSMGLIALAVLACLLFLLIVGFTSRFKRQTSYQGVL

B1: 401.11.177 (antibody, V domains shown)
VH: QVQLVGSGGGLVKPGRSLRLSCAASGFTFDDYAMHWVRQAPGKGLEWVATIIWNSAIIGYADSVKGRFIVSRDNAKNSLYLQMNSLRAEDTALYYCAKDICSSGGCPDGYFDSWGQGTLVTVSS
VL: DIQMTQSPSSVSASVGDRVTITCRASQHISSWLAWYQQKPGKAPKLLIYAASSLQSGVPSRFSGSGSGTDFTLTISSLQPEDFATYYCQQANRFPLTFGGGTKLEIK
B2: 401.11.178 (antibody, V domains shown)
VH: B1 VH with I100L
VL: B1 VL
B3: 401.11.179 (antibody, IgG4, V domains shown)
VH: B1 VH with I100M, D108E
VL: DIQMTQSPSSVSASVGDRVTITCRASQHISSWLAWYQQKPGKAPKLLIYAASSLQSGVPSRFSGSGSGTDFTLTISSLQPEDFATYYCQQANRFPLTFGGGTKLEIKR
notes: IgG4 (S228P)
B4: 401.11.19 (antibody, V domains shown)
VH: B1 VH with T91M, I100M, G104S
VL: B1 VL with P59S
B5: 401.11.22 (antibody, V domains shown)
VH: B1 VH with Q1E, G6E, K13Q, T91M, I100M, G104S
VL: B1 VL with P59S
B6: 401.11.20 (antibody, V domains shown)
VH: B1 VH with T91M, I100M, G104S
VL: B1 VL with K45N
B7: 401.11.21 (antibody, V domains shown)
VH: B1 VH with Q1E, G6E, T91M, I100M, G104S
VL: B1 VL with P59S
B8: 401.11.18 (antibody, V domains shown)
VH: B1 VH with I100M, G104S
VL: B1 VL with K45N, P59S
B9: 401.11.16 (antibody, V domains shown)
VH: B1 VH with Q1E, G6E, K13Q, T91M, I100M, G104S
VL: B1 VL with K45N, P59S
B10: 401.11.27 (antibody, V domains shown)
VH: B1 VH with I69T, V70I, T91M, I100M, G104S
VL: B1 VL with K45N
B11: 401.11.15 (antibody, V domains shown)
VH: B1 VH with Q1E, G6E, T91M, I100M, G104S
VL: B1 VL with K45N, P59S
B12: 401.11.28 (antibody, IgG4, V domains shown)
VH: B1 VH with I100M, G104S
VL: B3 VL with K45N
B13: 401.11.156 (antibody, IgG4, V domains shown)
VH: B1 VH with I100M
VL: B3 VL with P59S
notes: IgG4 (S228P)
B14: 401.11.165 (antibody, IgG4, V domains shown)
VH: B1 VH with Q1E, G6E, K13Q, I100M
VL: B3 VL
notes: IgG4 (S228P)
B15: 401.11.160 (antibody, IgG4, V domains shown)
VH: B1 VH with Q1E, G6E, K13Q, T91M, I100M
VL: B3 VL with K45N
notes: IgG4 (S228P)
B16: 401.11.154 (antibody, IgG4, V domains shown)
VH: B1 VH with I100M, G104S
VL: B3 VL
notes: IgG4 (S228P)
B17: 401.11.157 (antibody, IgG4, V domains shown)
VH: B1 VH with I100M
VL: B3 VL with K45N
notes: IgG4 (S228P)
B18: 401.11.155 (antibody, IgG4, V domains shown)
VH: B1 VH with Q1E, G6E, K13Q, T91M, I100M, G104S
VL: B3 VL
notes: IgG4 (S228P)
B19: 401.11.161 (antibody, IgG4, V domains shown)
VH: B1 VH with Q1E, G6E, K13Q, T91M, I100M
VL: B3 VL
notes: IgG4 (S228P)
B20: 401.11.166 (antibody, IgG4, V domains shown)
VH: B1 VH with Q1E, G6E, K13Q, I100M
VL: B3 VL with P59S
notes: IgG4 (S228P)
B21: 401.11.167 (antibody, IgG4, V domains shown)
VH: B1 VH with Q1E, G6E, K13Q, I100M
VL: B3 VL with K45N
notes: IgG4 (S228P)
B22: 401.11.152 (antibody, IgG4, V domains shown)
VH: B1 VH with Q1E, G6E, K13Q, I100M, G104S
VL: B3 VL with P59S
notes: IgG4 (S228P)
B23: 402.8.53 (antibody, IgG4, V domains shown)
VH: QVQLQESGPGLVKPSETLSLTCAVYGGSFSGYYWSWIRQPPGKGLEWIGEINHAGSTNYNPSLKSRVTISVDTSKNQFSLKLSSVTAADTAVYYCARGEIYDFWKSYLDVWGKGTTVTVSS
VL: QTVVTQEPSLTVSPGGTVTLTCASSSGAVSSGNFPNWFQQKPGQAPRALIFSASNKHSWTPARFSGSLLGGKAVLTLSGVQPEDEAEYYCLLYFGDTQLGVFGGGTKVTVLG
B24: 402.8.54 (antibody, IgG4, V domains shown)
VH: B23 VH with L108M, D109E
VL: QTVVTQEPSLTVSPGGTVTLTCASSSGAVSSGNFPNWFQQKPGQAPRALIFSASNKHSWTPARFSGSLLGGKAVLTLSGVQPEDEAEYYCLLYFGDTQLGVFGGGTKVTVL
B25: 402.8.55 (antibody, IgG4, V domains shown)
VH: B23 VH with D109E
VL: B24 VL

target: T1, Human CD1d on cells; assay: cell-based or functional assay

| NKT IFN-γ EC50 (moDC) [ng/mL] | NKT IL-4 EC50 (moDC) [ng/mL] | NKT IL-5 EC50 (moDC) [ng/mL] | NKT IL-13 EC50 (moDC) [ng/mL] | Binder |
| --- | --- | --- | --- | --- |
| 7.56 | 0.731 | 1.4 | 1.27 | B1 |
| 15.1 | 0.969 | 1.38 | 1.76 | B2 |
| 30.2 | 0.73 | 2.1 | 2.43 | B3 |

target: T2, Human CD1d/β2M (human, UniProt P15813 20-301; P61769 21-119); assay: SPR, transfection supernatant
T2 construct: also called hCD1d; recombinant human CD1d

| Kd [nM] | binding result | Binder |
| --- | --- | --- |
| 0.667 |  | B4 |
| 0.754 |  | B5 |
| 0.977 |  | B6 |
| 0.951 |  | B7 |
| 9.97 |  | B8 |
|  | no binding | B9 |
|  | no binding | B10 |
| 0.507 |  | B11 |

target: T1, Human CD1d on cells; assay: cell-based or functional assay; remark: another data set of the same source

| NKT IFN-γ EC50 (THP-1) [ng/mL] | NKT IFN-γ EC50 (moDC) [ng/mL] | Binder |
| --- | --- | --- |
| 1.42 | 0.294 | B12 |

target: T1, Human CD1d on cells; assay: cell-based or functional assay; remark: another data set of the same source

| fold improvement against 401.11 (IFN-γ, moDC) [fold] | Binder |
| --- | --- |
| ~5.1 | B13 |

target: T2, Human CD1d/β2M; assay: SPR

| Kd [nM] | Binder |
| --- | --- |
| 0.168 | B14 |
| 0.109 | B15 |
| 1.77 | B16 |
| 0.507 | B1 |
| 0.173 | B17 |
| 2.42 | B18 |
| 0.255 | B19 |
| 0.468 | B2 |
| 0.223 | B13 |
| 0.173 | B20 |
| 0.274 | B3 |
| 0.17 | B21 |
| 2.83 | B22 |

target: T1, Human CD1d on cells; assay: cell-based or functional assay; remark: another data set of the same source

| NKT IFN-γ EC50 (moDC) [ng/mL] | NKT IL-13 EC50 (moDC) [ng/mL] | Binder |
| --- | --- | --- |
| 0.658 | 1.52 | B23 |

target: T1, Human CD1d on cells; assay: cell-based or functional assay; remark: another data set of the same source

| NKT IFN-γ EC50 (THP-1) [ng/mL] | NKT IL-4 EC50 (THP-1) [ng/mL] | NKT IL-5 EC50 (THP-1) [ng/mL] | NKT IL-13 EC50 (THP-1) [ng/mL] | NKT TNF EC50 (THP-1) [ng/mL] | Binder |
| --- | --- | --- | --- | --- | --- |
| 6.15 | 1.11 | 3.73 | 5.76 | 3.04 | B14 |
| 5.45 | 1.81 | 4.48 | 6.98 | 3.54 | B17 |
| 5.81 | 1.99 | 4.45 | 6.91 | 3.85 | B13 |
| 6.98 | 2.75 | 5.38 | 7.25 | 4.02 | B20 |
| 6.51 | 2.89 | 4.98 | 7.46 | 4 | B21 |

target: T1, Human CD1d on cells; assay: cell-based or functional assay; remark: another data set of the same source

| NKT IFN-γ EC50 (moDC) [ng/mL] | NKT IL-4 EC50 (moDC) [ng/mL] | NKT IL-5 EC50 (moDC) [ng/mL] | NKT IL-13 EC50 (moDC) [ng/mL] | NKT TNF EC50 (moDC) [ng/mL] | Binder |
| --- | --- | --- | --- | --- | --- |
| 9.11 | 3.44 | 8.49 | 20.6 | 5.59 | B17 |
| 7.76 | 2.72 | 5.86 | 9.53 | 4.51 | B13 |

target: T1, Human CD1d on cells; assay: cell-based or functional assay; remark: another data set of the same source

| NKT IFN-γ EC50 (moDC) [ng/mL] | NKT IL-4 EC50 (moDC) [ng/mL] | Binder |
| --- | --- | --- |
| 277 | 105 | B23 |
| 138 | 109 | B24 |
| 445 | 175 | B25 |

target: T1, Human CD1d on cells; assay: cell-based or functional assay; remark: another data set of the same source

| NKT IL-4 EC50 (moDC) [ng/mL] | NKT IL-13 EC50 (moDC) [ng/mL] | Binder |
| --- | --- | --- |
| 1.56 | 6.52 | B15 |
| 4.16 | 17.7 | B16 |
| 0.799 | 3.87 | B17 |
| 27.6 | 74.7 | B18 |
| 5.24 | 8.38 | B19 |
| 1.95 | 5.22 | B13 |
| 10.2 | 78.5 | B22 |
